Measured values reported in article PMC3492551 (Nature structural & molecular biology, 2012).
One block for each molecule: values may come before it.

Legend:
[1] = molecular target: UHRF1 126-280 (UniProt Q96T88); experiment: biotin-peptide streptavidin pulldown, western blot; conditions: sites S10
[2] = molecular target: UHRF1 126-280 (UniProt Q96T88); experiment: histone peptide microarray; conditions: sites S10
[3] = molecular target: MPP8 50-118 (UniProt Q99549); experiment: fluorescence polarization titration; conditions: reference: H3K9me3 peptide; sites S10
[4] = molecular target: T1, UHRF1 tandem Tudor domain (TTD), residues 126-280 (human, UniProt Q96T88 126-280); experiment: NMR titration
T1 sequence (looked up): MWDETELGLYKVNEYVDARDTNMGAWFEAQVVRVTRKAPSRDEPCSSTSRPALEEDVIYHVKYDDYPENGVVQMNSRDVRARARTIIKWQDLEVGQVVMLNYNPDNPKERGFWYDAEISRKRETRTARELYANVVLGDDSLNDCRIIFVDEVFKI

Molecule: histone H3 (from UniProt P68431) H3K9me3S10p peptide
binding against the reference ([1]; reference: H3K9me3 peptide): same
binding against the reference ([2]; reference: H3K9me3 peptide): same

Molecule: histone H3 (from UniProt P68431) H3K9me2S10p peptide
binding against the reference ([1]; reference: H3K9me2 peptide): same
binding against the reference ([2]; reference: H3K9me2 peptide): same

Now from value to molecule:

KD [3]: lost; reference 0.23
Molecule: histone H3 1-20 (from UniProt P68431) H3K9me3S10p peptide

binding result [4]: binds
Molecule: ARTKQTARKST (not fully specified; trimethyl-lysine at 9; phosphoserine at 10) [doubly modified H3 peptide (residues 1-11, ARTKQTARKme3SpT)]
